{"source": "paper doi:10.1101/2021.06.01.446691", "molecular_target": "VirB4-like TraB ATPase of the pKM101-encoded type IV secretion system (plasmid pKM101 (carried in E. coli))", "test": "cryo-EM structure"}
{"substance": "VirB4-like TraB ATPase of the pKM101-encoded type IV secretion system (enzyme)", "values": [{"measurement": "stoichiometry N", "value": 12}]}
